In the supplement of paper PMC10724198:
± gives the standard deviation of the averaged measurements.

What was measured:
Experiment in all cases: protein stability index of tFT-peptide fusion (C-terminal peptide) (PSI (0-1 scale)); higher = more stable (slower turnover)
Saccharomyces cerevisiae [1] = conditions: temperature: 30 C
Description: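 MPS profiling in S. cerevisiae of the yeast C-terminome library: the last 12 aa of each annotated ORF are fused to the C-terminus of a sfGFP-mCherry timer, after a GGGS linker. Cells are FACS-sorted into 8 mCherry/sfGFP bins and deep-sequenced. PSI runs from 0 (unstable) to 1 (stable); wild type and das1Δ backgrounds, two technical replicates each.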

Saccharomyces cerevisiae [2] = conditions: genetic background: wild type; temperature: 30 C
Saccharomyces cerevisiae [3] = system: Saccharomyces cerevisiae
Description: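 MPS profiling in S. cerevisiae of the tFT-X12 degron library: putative degron peptides plus stable controls, 12 aa, fused to the C-terminus of a sfGFP-mCherry timer. Cells are FACS-sorted into 8 mCherry/sfGFP bins and deep-sequenced. PSI runs from 0 (unstable) to 1 (stable). Backgrounds are wild type, das1Δ and doa10Δ at 30 °C, and wild type, das1Δ, cdc34-1 and cdc53-1 at 37 °C; 2-3 technical replicates each.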

[4] = genetic background: das1 deletion
[5] = genetic background: cdc34-1, temperature: 37 C
[6] = genetic background: cdc53-1, temperature: 37 C
[7] = genetic background: das1 deletion, temperature: 30 C
[8] = genetic background: das1 deletion, temperature: 37 C
[9] = genetic background: doa10 deletion, temperature: 30 C
[10] = genetic background: wild type, temperature: 30 C
[11] = genetic background: wild type, temperature: 37 C

Sequence	protein stability index (Saccharomyces cerevisiae [1]; [4])	protein stability index (Saccharomyces cerevisiae [1]; genetic background: wild type)	other results
AAAIAGAAALLL [DAN1 C-terminal 12 aa]	0.712 ± 0.013	0.732 ± 0.035	–
AAPQDINQQPNQ [LDS1 C-terminal 12 aa]	0.727 ± 0.028	0.671 ± 0.0087	–
AAQLSSILPKYM [YLR140W C-terminal 12 aa]	0.674 ± 0.056	0.566 ± 0.063	–
AAVAKQKVSDSK [DHR2 C-terminal 12 aa]	0.664 ± 0.024	0.654 ± 0.024	–
AAVRQRREVNKK [ARO4 C-terminal 12 aa]	0.6893 ± 0.006	0.676 ± 0.04	–
ADFLAKKGASRR [RNH1 C-terminal 12 aa]	0.6944 ± 0.002	0.698 ± 0.03	–
ADVRYPNIDDYL [HCS1 C-terminal 12 aa]	0.73454 ± 6.5e-05	0.713 ± 0.048	–
AEELWADIVGSA [TRP2 C-terminal 12 aa]	0.75126 ± 0.00045	0.684 ± 0.019	–
AFEELYMGNCND [SIR1 C-terminal 12 aa]	0.7218 ± 0.0021	0.674 ± 0.035	–
AFFAVILLYIPG [YKR073C C-terminal 12 aa]	0.287 ± 0.027	0.302 ± 0.018	–
AFMMICEKLITL [SEC59 C-terminal 12 aa]	0.7062 ± 0.0011	0.5394 ± 0.0032	–
AGALAAVAAMLL [TIR4 C-terminal 12 aa]	0.707 ± 0.037	0.679 ± 0.024	–
AGALAVAAAYLL [CWP1 C-terminal 12 aa]	0.693 ± 0.013	0.669 ± 0.0081	–
AGSSKFLKGAKI [MRS1 C-terminal 12 aa]	0.707 ± 0.037	0.673 ± 0.0098	–
AGTLDGRLAIWY [BPH1 C-terminal 12 aa]	0.6943 ± 0.0032	0.686 ± 0.014	–
AIAKSIPKRVGL [PUT1 C-terminal 12 aa]	0.718 ± 0.035	0.6998 ± 0.0057	–
AINEGHEGFGLA [TOM1 C-terminal 12 aa]	0.663 ± 0.025	0.687 ± 0.024	–

Sequence	protein stability index (Saccharomyces cerevisiae [1]; [4])	protein stability index (Saccharomyces cerevisiae [1]; genetic background: wild type)	other results
AKNGDYVKIEQP [YMR315W C-terminal 12 aa]	0.6792 ± 0.0039	0.729 ± 0.019	–
ALAASRAEQPPA [YCR049C C-terminal 12 aa]	0.691 ± 0.0084	0.712 ± 0.012	–
ALEEALMDRLQF [ATG29 C-terminal 12 aa]	0.7094 ± 0.0057	0.6947 ± 0.0064	–
ALGLAGVAMLFL [SED1 C-terminal 12 aa]	0.694 ± 0.02	0.647 ± 0.0089	–
ALGMYFLGPALK [YGL063C-A C-terminal 12 aa]	0.697 ± 0.02	0.7443 ± 0.0028	–
ALSKDGIYTIAN [PAU1 C-terminal 12 aa]	0.711 ± 0.0085	0.721 ± 0.017	–
AMYDKITESQKK [CHD1 C-terminal 12 aa]	0.714 ± 0.027	0.683 ± 0.0096	–
ANSLDAIFLKSK [YNL150W C-terminal 12 aa]	0.6777 ± 0.0042	0.669 ± 0.021	–
APTPEACESCSG [RNR3 C-terminal 12 aa]	0.696 ± 0.01	0.6947 ± 0.003	–
AREQLYEKLEQA [MIC27 C-terminal 12 aa]	0.697 ± 0.007	0.6716 ± 0.0039	–
ARMTGETPVAKH [YHM2 C-terminal 12 aa]	0.688 ± 0.033	0.677 ± 0.016	–
VRLHIAMWLRRC	–	–	protein stability index (Saccharomyces cerevisiae [2]): 0.14 ± 0.027; protein stability index (Saccharomyces cerevisiae [3]; [5]): 0.299 ± 0.02; protein stability index (Saccharomyces cerevisiae [3]; [6]): 0.271 ± 0.022; protein stability index (Saccharomyces cerevisiae [3]; [7]): 0.316 ± 0.027; protein stability index (Saccharomyces cerevisiae [3]; [8]): 0.414 ± 0.007; protein stability index (Saccharomyces cerevisiae [3]; [9]): 0.138 ± 0.015; protein stability index (Saccharomyces cerevisiae [3]; [10]): 0.0999 ± 0.025; protein stability index (Saccharomyces cerevisiae [3]; [11]): 0.18975 ± 1.6e-05
VRNKFSYVLRLN	–	–	protein stability index (Saccharomyces cerevisiae [2]): 0.179 ± 0.016; protein stability index (Saccharomyces cerevisiae [3]; [5]): 0.488 ± 0.024; protein stability index (Saccharomyces cerevisiae [3]; [6]): 0.678 ± 0.014; protein stability index (Saccharomyces cerevisiae [3]; [7]): 0.615 ± 0.016; protein stability index (Saccharomyces cerevisiae [3]; [8]): 0.747 ± 0.0094; protein stability index (Saccharomyces cerevisiae [3]; [9]): 0.0804 ± 0.019; protein stability index (Saccharomyces cerevisiae [3]; [10]): 0.11 ± 0.029; protein stability index (Saccharomyces cerevisiae [3]; [11]): 0.138 ± 0.037
VRVLPFCWCIVR	–	–	protein stability index (Saccharomyces cerevisiae [2]): 0.274 ± 0.0053; protein stability index (Saccharomyces cerevisiae [3]; [5]): 0.177 ± 0.03; protein stability index (Saccharomyces cerevisiae [3]; [6]): 0.14 ± 0.0084; protein stability index (Saccharomyces cerevisiae [3]; [7]): 0.188 ± 0.028; protein stability index (Saccharomyces cerevisiae [3]; [8]): 0.288 ± 0.005; protein stability index (Saccharomyces cerevisiae [3]; [9]): 0.263 ± 0.019; protein stability index (Saccharomyces cerevisiae [3]; [10]): 0.187 ± 0.017; protein stability index (Saccharomyces cerevisiae [3]; [11]): 0.259 ± 0.046
VSIVLHSVPCGG	–	–	protein stability index (Saccharomyces cerevisiae [2]): 0.453 ± 0.035; protein stability index (Saccharomyces cerevisiae [3]; [5]): 0.514 ± 0.029; protein stability index (Saccharomyces cerevisiae [3]; [6]): 0.5211 ± 0.0032; protein stability index (Saccharomyces cerevisiae [3]; [7]): 0.389 ± 0.019; protein stability index (Saccharomyces cerevisiae [3]; [8]): 0.54459 ± 0.0005; protein stability index (Saccharomyces cerevisiae [3]; [9]): 0.361 ± 0.011; protein stability index (Saccharomyces cerevisiae [3]; [10]): 0.392 ± 0.024; protein stability index (Saccharomyces cerevisiae [3]; [11]): 0.519 ± 0.011
VSRVHIRIEGNH	–	–	protein stability index (Saccharomyces cerevisiae [2]): 0.528 ± 0.082; protein stability index (Saccharomyces cerevisiae [3]; [5]): 0.694 ± 0.027; protein stability index (Saccharomyces cerevisiae [3]; [6]): 0.755 ± 0.028; protein stability index (Saccharomyces cerevisiae [3]; [7]): 0.622 ± 0.017; protein stability index (Saccharomyces cerevisiae [3]; [8]): 0.7218 ± 0.0064; protein stability index (Saccharomyces cerevisiae [3]; [9]): 0.635 ± 0.026; protein stability index (Saccharomyces cerevisiae [3]; [10]): 0.634 ± 0.035; protein stability index (Saccharomyces cerevisiae [3]; [11]): 0.70121 ± 0.00047
VSVQVRCCPWVG	–	–	protein stability index (Saccharomyces cerevisiae [2]): 0.7153 ± 0.0063; protein stability index (Saccharomyces cerevisiae [3]; [5]): 0.679 ± 0.037; protein stability index (Saccharomyces cerevisiae [3]; [6]): 0.735 ± 0.013; protein stability index (Saccharomyces cerevisiae [3]; [7]): 0.622 ± 0.011; protein stability index (Saccharomyces cerevisiae [3]; [8]): 0.728 ± 0.014; protein stability index (Saccharomyces cerevisiae [3]; [9]): 0.618 ± 0.031; protein stability index (Saccharomyces cerevisiae [3]; [10]): 0.629 ± 0.016; protein stability index (Saccharomyces cerevisiae [3]; [11]): 0.709 ± 0.011
